Assay type in all cases: biochemical
Data set [1] is described as follows: HPLC screening of the single-mutant amylosucrase library for glucosylation of D-GlcpNAc. The conditions noted are these: acceptor D-GlcpNAc. As for the experimental part: The protocol was established to enable the rapid identification of clones for which D-GlcpNAc glucosylation was improved. To obtain higher amounts of enzymes and facilitate detection of glucosylated compounds upon HPLC screening, mutants were produced in 96-DeepWell Format plates. Storage microplates containing monomutants were thawed and replicated to inoculate a starter culture in 96-well microplates containing, in each well, 150 μL LB medium supplemented with ampicillin (100 μg/mL). After growth for 24 h at 30° C. under agitation (200 rpm), plates were duplicated into 96-Deep Well plates containing, in each well, 1.1 mL LB medium supplemented with ampicillin (100 μg/mL) and IPTG (1 mM) to induce GST-AS expression. Cultures were then grown for 24 h at 30° C. under agitation (200 rpm). Plates were centrifuged (20 min, 3000 g, 4° C.) and the supernatant was removed. The cell pellet was resuspended in 200 μL of lysozyme (0.5 mg/mL), followed by freezing at −80° C. for 8 to 12 h. After thawing at room temperature, 100 μL of sucrose and 100 μL of acceptor (each at a final concentration of 73 mM) were added to each well. Enzymatic reaction was incubated at 30° C. during 24 h under agitation. The DeepWell plates were then centrifuged (20 min, 3000 g, 4° C.) and 300 μL of the supernatant was transferred to a filter micro-plate (PVDF 0.2 μm) to be clarified. […]
Efficiency of the glucosylation reaction was evaluated by HPLC analysis of the acceptor reaction product synthesized when using D-GlcpNAc as acceptor using a Dionex P 680 series pump, a Shodex RI 101 series refractometer, a Dionex UVD 340 UV/Vis detector and an autosampler HTC PAL. […]
For each of the 7 selected positions, 19 single mutants were generated (corresponding to each possible amino acid change). […] Both sucrose consumption and disaccharide formation were determined in order to calculate the glucosylation rate defined as the molar ratio of monoglucosylated acceptor versus/sucrose consumed.

Data set [2] in a line: Product profile with 146 mM sucrose alone (HPAEC). Conditions: t=24 h. As for the experimental part:
Comparison of products synthesized by wild-type and AS variants. Reactions were performed in the presence of 146 mM sucrose alone or supplemented with 146 mM acceptor. The purified wild-type or mutated GST/AS were employed at 0.5 U/mL. The reactions were stopped by heating at 95° C. for 5 min. The final mixture was centrifuged at 18 000 g for 10 min, filtered on 0.22 μm membrane and analyzed by HPLC, as previously described.
Soluble and insoluble oligosaccharides produced during the reaction were identified by HPAEC using a Dionex Carbo-Pack PA100 column at 30° C. Before analysis, the insoluble fraction was solubilized in KOH at a final total sugar concentration of 10 g/kg. Mobile phase (150 mM NaOH) was set at 1 mL/min flow rate with a sodium acetate gradient (going from 6 to 500 mM within 120 min). Detection was performed using a Dionex ED40 module with a gold working electrode and an Ag/AgCl pH reference. Note that α-D-GlcpNAc-OAll (acceptor) and its derivatives are not oxidable products and thus are not detectable by HPAEC. Sucrose, glucose, fructose, α-D-GlcpNAc-OAll (acceptor) and its derivatives (glucosylation products) were quantified by HPLC, as previously described

Data set [3] is described as follows: Enzymatic glucosylation of D-GlcpNAc derivatives: α-D-GlcpNAc-OMe. Conditions: sucrose:acceptor 1:1 (146 mM); estimated according to peak areas. As for the experimental part:
(§1) The mutant F290K and the ASNPwt were tested on other D-GlcNAc derivatives (α-D-GlcpNAc-OMe, β-D-GlcpNAc-OMe, β-D-GlcpNAc-Oallyl and D-GlcNHTCA) used as potential acceptors. The enzymatic reaction was carried out using sucrose as donor and D-GlcNAc derivative as acceptor in a 1:1 ratio (146 mM)
(§2) Efficiency of the glucosylation reaction was evaluated by HPLC analysis of the acceptor reaction product synthesized a Biorad HPLC Carbohydrate Analysis column (HPX-87K column (300×7.8 mm))
(§3) Percentages of glucosylation rates were estimated according to peak areas as no reference was available.

The nature of data set [4]: Enzymatic glucosylation of D-GlcpNAc derivatives: β-D-GlcpNAc-OAll. The conditions noted are these: sucrose:acceptor 1:1 (146 mM); estimated according to peak areas. Here is the method: as §1, §2, §3
Data set [5] in a line: Kinetic parameters towards sucrose donor. Here is the method: Enzyme assays were carried out in a total volume of 2 mL containing pure enzyme (0.073 mg, 0.153 mg and 0.092 mg when using A289P-F290C, A289P-F2901 and A289P-F290L, respectively).
Kinetic studies of AS variants were performed in the presence of sucrose (0-500 mM). At regular time intervals (2-5 min), aliquots (200 μL) were removed, heated (95° C., 2 min) and centrifuged (18000 g, 5 min) All the samples were filtered on a 0.22 μm membrane and analyzed using HPLC material previously described. The initial rate of sucrose consumed, corresponding to the initial rate of fructose released, was expressed in mole of fructose released per minute and per gram of enzyme. The kinetic parameters kcat and Km were calculated using Eadie-Hofstee plot.

Data set [6] in a line: Enzymatic glucosylation of D-GlcpNAc derivatives: D-GlcNHTCA. The conditions noted are these: sucrose:acceptor 1:1 (146 mM); estimated according to peak areas. As for the experimental part:
as §1, §2, §3

Data set [7] is described as follows: Kinetic parameters towards α-D-GlcpNAc-OAll acceptor. Conditions: 250 mM for both sucrose and α-D-GlcpNAc-OAll. As for the experimental part:
Enzyme assays were carried out in a total volume of 2 mL containing pure enzyme (0.037 mg, 0.076 mg and 0.046 mg when using A289P-F290C, A289P-F2901 and A289P-F290L, respectively).
The kcat/Km (α-D-GlcpNAc-OAll) value was calculated from the initial rate of formation of desired disaccharide (α-D-Glcp-(1→4)-α-D-GlcpNAc-OAll), corresponding to the initial rate of α-D-GlcpNAc-OAll consumed. As saturation was not achieved with the mutants, efficiency was calculated by linear regression analysis of the velocity versus substrate concentration plot.

“Also recorded” adds a separate entry of the source.

B1: F290K: single mutant F290K of N. polysaccharea amylosucrase 1G5A (protein)
chain: SPNSQYLKTRILDIYTPEQRAGIEKSEDWRQFSRRMDTHFPKLMNELDSVYGNNEALLPMLEMLLAQAWQSYSQRNSSLKDIDIARENNPDWILSNKQVGGVCYVDLFAGDLKGLKDKIPYFQELGLTYLHLMPLFKCPEGKSDGGYAVSSYRDVNPALGTIGDLREVIAALHEAGISAVVDFIFNHTSNEHEWAQRCAAGDPLFDNFYYIFPDRRMPDQYDRTLREIFPDQHPGGFSQLEDGRWVWTTFNSFQWDLNYSNPWVFRAMAGEMLFLANLGVDILRMDAVAKIWKQMGTSCENLPQAHALIRAFNAVMRIAAPAVFFKSEAIVHPDQVVQYIGQDECQIGYNPLQMALLWNTLATREVNLLHQALTYRHNLPEHTAWVNYVRSHDDIGWTFADEDAAYLGISGYDHRQFLNRFFVNRFDGSFARGVPFQYNPSTGDCRVSGTAAALVGLAQDDPHAVDRIKLLYSIALSTGGLPLIYLGDEVGTLNDDDWSQDSNKSDDSRWAHRPRYNEALYAQRNDPSTAAGQIYQDLRHMIAVRQSNPRFDGGRLVTFNTNNKHIIGYIRNNALLAFGNFSEYPQTVTAHTLQAMPFKAHDLIGGKTVSLNQDLTLQPYQVMWLEIA
As to B1, the “increase of glucosylation rate compared to the wild type” value in data set [1] is given as 45 fold. In addition, the “length of maltooligosaccharides synthesized in the absence of acceptor” value in data set [2] is recorded as not above 20 DP. In data set [3], the “glucosylation of acceptor α-D-GlcpNAc-OMe” value is more than 95%. The “glucosylation of acceptor β-D-GlcpNAc-OAll” value in data set [4] is on record as more than 95%. In data set [5] (250 mM sucrose), the “V250mM (initial rate of sucrose consumption)” value came out at 110 µmol/min/g. Further, the “behaviour (at high concentration)” value in data set [5] (sucrose donor alone) is given as “no kinetic saturation; also recorded: linear”. Further, the “glucosylation of acceptor D-GlcNHTCA” value in data set [6] was more than 95%. The “V250mM (initial rate of acceptor consumption)” value in data set [7] amounted to 6690 µmol/min/g.

Source of the values: patent US20110086767A1, “MUTANTS OF GLYCOSIDE HYDROLASES AND USES THEREOF FOR SYNTHESIZING COMPLEX OLIGOSACCHARIDES AND DISACCHARIDE INTERMEDIATES” (Institut Pasteur, priority 2008, published 2011).
